From patent US20240101674A1 (OTTIMO PHARMA, published 2024)
Numbering of substitutions follows the chain as printed.

T1: rhesus VEGFR2 protein (rhesus monkey)
T1 construct: Recombinant protein used in ELISA; also called rhesus monkey VEGFR2; rh VEGFR2
T1 chain: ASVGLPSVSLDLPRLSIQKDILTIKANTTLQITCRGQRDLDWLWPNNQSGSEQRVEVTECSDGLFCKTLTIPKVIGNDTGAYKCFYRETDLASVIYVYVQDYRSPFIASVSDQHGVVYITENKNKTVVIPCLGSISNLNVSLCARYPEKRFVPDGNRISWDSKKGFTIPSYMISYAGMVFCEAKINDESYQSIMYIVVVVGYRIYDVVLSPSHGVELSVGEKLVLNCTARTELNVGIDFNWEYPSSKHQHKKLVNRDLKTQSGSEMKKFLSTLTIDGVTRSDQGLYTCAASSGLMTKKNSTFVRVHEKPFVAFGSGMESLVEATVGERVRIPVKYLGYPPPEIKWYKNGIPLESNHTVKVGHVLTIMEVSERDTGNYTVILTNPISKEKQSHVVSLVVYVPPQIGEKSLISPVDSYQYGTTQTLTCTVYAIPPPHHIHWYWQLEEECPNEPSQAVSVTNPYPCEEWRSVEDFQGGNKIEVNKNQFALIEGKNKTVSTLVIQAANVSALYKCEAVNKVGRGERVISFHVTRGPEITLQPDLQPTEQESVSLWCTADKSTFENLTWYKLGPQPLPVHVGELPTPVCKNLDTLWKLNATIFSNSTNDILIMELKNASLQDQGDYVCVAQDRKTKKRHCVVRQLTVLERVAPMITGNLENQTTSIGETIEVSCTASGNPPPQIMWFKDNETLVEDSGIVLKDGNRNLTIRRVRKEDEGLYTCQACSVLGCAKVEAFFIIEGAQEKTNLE

T2: cynomolgus monkey PD1 human Fc tagged recombinant protein (cynomolgus monkey, UniProt Q15116 25-170 (human entry), limits assumed)
T2 construct: also called cyno PD1-Fc; cyno PD1; not shown: human Fc tag
T2 chain: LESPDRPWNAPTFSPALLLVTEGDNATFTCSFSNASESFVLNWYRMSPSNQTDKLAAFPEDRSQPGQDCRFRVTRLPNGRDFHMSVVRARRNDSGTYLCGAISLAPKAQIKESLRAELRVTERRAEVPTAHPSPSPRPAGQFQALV

B1: MAB02A03 Fab (Fab, V domains shown)
VH: EVQLVESGGGLVQPGGSLRLSCAASGFTFSSYMMSWVRQAPGKGLEWVATISGGGANTYYPDSVKGRFTISRDNAKNSLYLQMNSLRAEDTAVYYCARQLYYFDYWGQGTTVTVSS
VL: DIQMTQSSSSLSASVGDRVTITCLASQGIGPWLSWYQQKPGKAPKLLIYTATSLADGVPSRFSGSGSGTDFTLTISSLQPEDFATYYCQQVYSIPWTFGGGTKVEIK
notes: Library-derived clone screened as human IgG1-kappa Fab in E. coli periplasmic extract; also called MAB02A03 (periprep Fab)
B2: hMAb005 Fab (Fab, V domains shown)
VH: B1 VH
VL: B1 VL with S8P, G28T, P31T, S34T
notes: Human IgG1-kappa Fab, periplasmically expressed in E. coli, detected via c-myc; also called hMAb005 v-domains expressed as human IgG1 Fab; positive control hMAb005 Fab
B3: MAB05E08 Fab (Fab, V domains shown)
VH: B1 VH
VL: B1 VL with S8P, G28T, P31T, S34T, Y92S, S93V, I94T, W96F
notes: Library-derived clone screened as human IgG1-kappa Fab in E. coli periplasmic extract; also called MAB05E08 (periprep Fab)
B4: MAB02B03 Fab (Fab, V domains shown)
VH: B1 VH
VL: B1 VL with S8P, G28P, I29L, P31I
notes: Library-derived clone screened as human IgG1-kappa Fab in E. coli periplasmic extract; also called MAB02B03 (periprep Fab)
B5: MAB06.8.6 IgG1 null (antibody, V domains shown)
VH: B1 VH with M33L, A56S, T58K, P61V, F103Y
VL: DIQMTQSPSSLSASVGDRVTITCRASQESGIWLSWYQQKPGKAPKLLIYAASSLQSGVPSRFSGSGSGTDFTLTISSLQPEDFATYYCQQVSVTPFTFGGGTKVEIK
notes: Human IgG1 null format; only variable domains are tied to the clone
B6: MAB05G03 Fab (Fab, V domains shown)
VH: B1 VH
VL: B1 VL with S8P, G28T, P31T, S34T, Y92A, S93E, I94L, W96F, T97G
notes: Library-derived clone screened as human IgG1-kappa Fab in E. coli periplasmic extract; also called MAB05G03 (periprep Fab)
B7: MAB06.8.2 IgG1 null (antibody, V domains shown)
VH: B1 VH with M33L, A56S, T58K, P61V, L100V
VL: B5 VL
notes: as for B5

Tests used:
human VEGFR2 protein [1] = biological target: T3, human VEGFR2 protein (human, UniProt P35968 20-764); experiment: periprep Fab direct binding ELISA (FIG. 1)
T3 construct: Recombinant protein used in ELISA; also called hu VEGFR2; KDR

rhesus VEGFR2 protein = biological target: T1, rhesus VEGFR2 protein; experiment: periprep Fab direct binding ELISA (FIG. 1)
[2] = biological target: T2, cynomolgus monkey PD1 human Fc tagged …; experiment: periprep Fab direct binding ELISA (FIG. 1)
[3] = biological target: T4, biotinylated human PD1-His/AviTag (human, UniProt Q15116 25-170, limits assumed, biotinylated); experiment: Alphascreen epitope competition, Fab periprep; competitor hMAb005 IgG1 null on biotinylated human PD1-His/AviTag
T4 construct: also called human PD1 protein (Alphascreen); not shown: His/AviTag
Description: FIG. 2A-FIG. 2B. Epitope competition analysis of Fab proteins in Alphascreen Anti-PD1 clones were expressed as Fab in E. coli and peripreps were applied in an epitope competition assay using Alphascreen technology.
The AlphaScreen assay (Perkin Elmer) was performed in a 25 μl final volume in 384-well white microtiter plates (Greiner). The reaction buffer contained 1×PBS pH 7.3 (Oxoid, Cat. nr. BR0014G) and 0.05% (v/v) Tween® 20 (Sigma, Cat. nr. P9416). Periprep samples diluted in reaction buffer were incubated with biotinylated human PD1-His/AviTag at 0.6 nM final concentration for 20 minutes at room temperature. […] The emission of light was measured in the EnVision multilabel plate reader (Perkin Elmer) and analysed using the EnVision manager software. Values were reported as Counts Per Second (CPS) and corrected for crosstalk. Signal reduction percentages were calculated relative to the irrelevant sample.

[4] = biological target: T5, human PD1 human Fc tagged recombinant protein (human, UniProt Q15116 25-170); experiment: periprep Fab direct binding ELISA (FIG. 1)
T5 construct: also called human PD1-Fc; hu PD1; not shown: human Fc tag

human VEGFR2 protein [5] = biological target: T3, human VEGFR2 protein; experiment: direct titration ELISA, IgG1 null on VEGFR2 protein (FIG. 12C)

T4 sequence (Q15116 25-170 limits assumed): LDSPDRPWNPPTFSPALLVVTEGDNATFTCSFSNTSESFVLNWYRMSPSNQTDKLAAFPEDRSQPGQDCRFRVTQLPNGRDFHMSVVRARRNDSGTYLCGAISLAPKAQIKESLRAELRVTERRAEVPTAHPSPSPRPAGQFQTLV
T5 sequence (Q15116 25-170 limits assumed): as above

Binder | binding result (human VEGFR2 protein [1]) | binding result (rhesus VEGFR2 protein) | binding result [2] | percentage signal reduction of hMAb005/PD1 interaction [3] [%] | binding result [4] | binding result (human VEGFR2 protein [5])
B1 | binds | binds | binds | 75 |  | 
B2 |  |  | binds |  | binds | 
B3 | binds | binds | binds | > 75 |  | 
B4 | binds | binds | binds | > 75 |  | 
B5 |  |  |  |  |  | binds
B6 | binds | binds | binds | > 75 |  | 
B7 |  |  |  |  |  | binds
